Laboratory results as given in the supplement of paper PMC7125110.
± gives the standard error. For some of these results: Fewer inactive variants are shown than the library holds.

B1: glmS ribozyme (parent)
chain: AUAAAAGCGCCAGAACUACAGAAAUGUAGUUGACGAGGAGGAGGUUUAUCGAAUUUUCGGCGGAUGCCUCCAAA

How the values were obtained:
Conditions in all cases: with glucosamine-6-phosphate
[1] = variants of: B1; assay: kcat; higher = faster cleavage; RNA array
Summary of the method: (§1)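 E. coli RNA polymerase transcribed barcoded ribozyme variants in situ on sequenced MiSeq chips, which were tracked via a hybridised Cy3 probe at 37 °C. Tiles were imaged over ~14 h after glucosamine-6-phosphate (40 μM to 10 mM) in HEPES/KCl/Mg(OAc)2 buffer was flowed in. Normalised per-tile medians were fit to one- or two-exponential decays for kobs, and kcat and KM came from weighted Michaelis–Menten fits.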

[2] = variants of: B1; assay: KM; higher = weaker cofactor use; RNA array
Summary of the method: as §1

[3] = variants of: B1; assay: self-cleavage kobs at 40 uM GlcN6P; higher = faster cleavage; RNA array
Summary of the method: as §1

[4] = variants of: B1; assay: self-cleavage kobs at 160 uM GlcN6P; higher = faster cleavage; RNA array
Summary of the method: as §1

[5] = variants of: B1; assay: self-cleavage kobs at 640 uM GlcN6P; higher = faster cleavage; RNA array
Summary of the method: as §1

[6] = variants of: B1; assay: self-cleavage kobs at 2500 uM GlcN6P; higher = faster cleavage; RNA array
Summary of the method: as §1

[7] = variants of: B1; assay: self-cleavage kobs at 10000 uM GlcN6P; higher = faster cleavage; RNA array
Summary of the method: as §1

Variant	kcat [1] [s⁻¹]	KM [2] [µM]	self-cleavage kobs at 40 uM GlcN6P [3] [s⁻¹]	self-cleavage kobs at 160 uM GlcN6P [4] [s⁻¹]	self-cleavage kobs at 640 uM GlcN6P [5] [s⁻¹]	self-cleavage kobs at 2500 uM GlcN6P [6] [s⁻¹]	self-cleavage kobs at 10000 uM GlcN6P [7] [s⁻¹]
U30G U45G	0.00151 ± 0.00041	2200 ± 950	3.05e-05 ± 1.4e-05	7.13e-05 ± 2.2e-05	0.000382 ± 6.4e-05	0.00102 ± 0.00015	0.00103 ± 0.00021
U30G U45A	0.0197 ± 0.0054	1680 ± 600	0.000528 ± 9.3e-05	0.00157 ± 0.00042	0.00474 ± 0.0013	0.0101 ± 0.0026	0.0239 ± 0.0066
G29A G66C	6.73e-05 ± 1.1e-05	1940 ± 930	–	–	–	4.16e-05 ± 1.1e-05	5.41e-05 ± 1.4e-05
U30A G66A	0.0034 ± 0.00044	1870 ± 370	8.19e-05 ± 1e-05	0.00021 ± 5.2e-05	0.000751 ± 0.00018	0.00197 ± 0.00024	0.0029 ± 0.00037
U30A G66U	0.000236 ± 1.9e-05	1720 ± 340	–	–	5.93e-05 ± 7.9e-06	0.000159 ± 1.6e-05	0.000195 ± 1.5e-05
G29U G41U	8.68e-05 ± 1.2e-05	651 ± 270	–	–	5.08e-05 ± 1.6e-05	6.65e-05 ± 2.9e-05	7.94e-05 ± 2.1e-05
U30G C67U	0.00191 ± 0.00047	924 ± 380	9.9e-05 ± 2.5e-05	0.000289 ± 5.9e-05	0.000697 ± 0.00011	0.00139 ± 0.00022	0.00378 ± 0.0013
U30G C67G	0.000155 ± 9.6e-06	2050 ± 310	–	–	3.99e-05 ± 9.3e-06	8.11e-05 ± 1e-05	0.000132 ± 1.6e-05
G29A A52G	0.000368 ± 9e-05	3290 ± 1300	–	–	5.31e-05 ± 8.1e-06	0.000207 ± 2.8e-05	0.000255 ± 3.8e-05
G29A A52U	0.0001272 ± 9.8e-07	2770 ± 58	< 1e-05	–	2.42e-05 ± 1.1e-05	5.99e-05 ± 1.4e-05	9.97e-05 ± 1.3e-05
G29A A64G	0.0066 ± 0.0018	3900 ± 1500	0.000101 ± 2.6e-05	0.000242 ± 6.6e-05	0.000967 ± 0.00022	0.00217 ± 0.00041	0.00532 ± 0.00092
G29A A64C	< 1e-05	–	< 1e-05	< 1e-05	–	–	–
G29A G59C C70G	< 1e-05	–	–	–	–	–	–
G29U U54G	0.00305 ± 0.00096	1760 ± 820	7.25e-05 ± 1.3e-05	0.000223 ± 4.1e-05	0.00114 ± 0.00016	0.0013 ± 0.00024	0.00321 ± 0.00046
G29U G37U	< 1e-05	–	–	–	–	–	< 1e-05
G29U A48C	1.88e-05 ± 3.6e-07	138 ± 42	< 1e-05	< 1e-05	–	–	1.85e-05 ± 7.6e-06
U30G U65G	0.00191 ± 0.00048	3590 ± 1400	–	8.07e-05 ± 1.4e-05	0.000378 ± 6e-05	0.000614 ± 0.0001	0.00155 ± 0.00019
U30G U65C	0.000117 ± 2.1e-05	–	–	–	4.91e-05 ± 1.7e-05	0.000122 ± 2.6e-05	9.72e-05 ± 2.2e-05
U30G U65A	0.00108 ± 0.00019	3500 ± 1100	3.04e-05 ± 1.2e-05	–	0.000157 ± 2.9e-05	0.000483 ± 0.00014	0.000797 ± 0.0001
U30C G40U	4.56e-05 ± 6.3e-06	–	–	–	–	5.33e-05 ± 1.1e-05	4.17e-05 ± 6.9e-06
U30A A36U	< 1e-05	–	–	–	< 1e-05	–	–
G29A G32U	0.00277 ± 0.00084	–	–	–	7.58e-05 ± 1.8e-05	0.000325 ± 5.7e-05	0.000888 ± 0.00014
G29C U55A	0.00298 ± 0.00096	3270 ± 1400	4.44e-05 ± 1.1e-05	0.000171 ± 3e-05	0.000406 ± 6.1e-05	0.00139 ± 0.00019	0.00222 ± 0.00061
U30A A48C	9.77e-05 ± 4.8e-06	–	–	–	–	–	4.29e-05 ± 8.1e-06
G29C G66A	0.00186 ± 0.00025	4030 ± 750	–	6.45e-05 ± 1.3e-05	0.00027 ± 3.9e-05	0.000714 ± 0.00013	0.00132 ± 0.0002
G29U G43A	< 1e-05	–	< 1e-05	< 1e-05	–	–	–
G29C A53U	0.00163 ± 0.00038	1950 ± 640	5.34e-05 ± 1.1e-05	0.000111 ± 1.9e-05	0.000383 ± 6.3e-05	0.000902 ± 0.0002	0.00141 ± 0.00024
G29C C61G	2.64e-05 ± 1e-05	–	< 1e-05	–	–	–	–
G29U U46C	0.000262 ± 1.5e-05	1090 ± 140	–	3.52e-05 ± 1.6e-05	9.83e-05 ± 1.4e-05	0.000156 ± 4.3e-05	0.000242 ± 2.9e-05
G29U U46G	0.00127 ± 0.00012	2110 ± 340	3.07e-05 ± 9.8e-06	9.52e-05 ± 2e-05	0.000259 ± 5e-05	0.000689 ± 0.00011	0.00106 ± 0.00013
